The values that follow come from publication PMC2119638.

Assay [1] concerns the target talin purified from chicken gizzard (chicken) (UniProt P54939). Nature of the assay: radioligand binding.
The target of assay [2] is 190-kD proteolytic fragment of talin (chicken) (UniProt P54939). Put plainly: radioligand binding.

For the substance “vinculin purified from chicken gizzard (natural protein)”, in assay [1], the Kd, high affinity interaction was found to be 30 nM; the Kd, higher affinity of two was found to be 10 nM; the Kd, lower affinity interaction amounted to 550 nM; the Kd, lower affinity of two came out at 240 nM. In assay [1], the N (Bmax), high affinity interaction (mol of vinculin bound per mol of talin) was found to be 0.15 and the N (Bmax), lower affinity interaction (mol of vinculin bound per mol of talin) was determined as 3. Moreover, in assay [2], the Kd, higher affinity of two came out at 16 nM and the Kd, lower affinity of two worked out at 220 nM.
